B1: HA-UpaGΔ2 (domain or fragment)
chain: AGVNATDAVNVSQLKSSEAGGVRYDTKADGSIDYSNITLGGGNSGTTRISNVSAGVNNNDAVNYAQLKQSVQETKQYTDQRMVEMDNKLSKTESKLSGGIASAMAMTGLPQAYTPGASMASIGGGTYNGESAVALGVSMVSANGRWVYKLQGSTNSQGEYSAALGAGIQW
notes: UpaG, trimeric autotransporter adhesin of uropathogenic E. coli O6:H1 strain CFT073; the C-terminal 170 residues (passenger-domain fragment 1609-1689 and beta-domain segment 1689-1778) of the 1778 residue full-length protein; Made with the native UpaG signal peptide (residues 1-53) before the HA tag; the signal peptide is meant to be cleaved on export; Two glycines were inserted between signal …

Experiments:
[1] = molecular target: His10-UpaGΔ2(Y1735am) (E. coli O6:H1 strain CFT073); experiment: SDS-PAGE of unheated (25 °C) against heated (99 °C) samples after Ni-NTA purification; cells radiolabelled, UV irradiated and PK treated; membranes solubilised in 2% DDM, Ni-NTA in 50 mM NaH2PO4 pH 8, 500 mM NaCl, 0.05% DDM; eluate kept at 25 or 99 °C in SDS sample buffer for 5 min
[2] = molecular target: the molecule itself; experiment: SDS- and heat-resistant oligomers on SDS-PAGE after pulse-chase labelling and immunoprecipitation; cells grown in M9 minimal medium at 37 °C, pTrc99a derivatives; TCA precipitation, immunoprecipitation with anti-HA or anti-UpaG antiserum, samples heated to 99 °C for 5 min, 8-16% Tris-glycine gels

Molecule | stoichiometry N [1] | stoichiometry N [2]
His10-UpaGΔ2(Y1735am) (from UniProt A0A0H2VCA1 1609-1778) (domain or fragment) | 3 | –
B1 | – | 3
